Assay results reported in publication PMC4515812.

B1: Sp1 site -403/-382 probe (Sp1_EMSA2) (dsDNA)
DNA 1: CGGGGCCCCGCCCGGGCCAGCC
DNA 2: GGCTGGCCCGGGCGGGGCCCCG
B2: Sp1 consensus probe (Sp1_EMSA1) (dsDNA)
DNA 1: ATTCGATCGGGGCGGGGCGAGC
DNA 2: GCTCGCCCCGCCCCGATCGAAT
B3: Sp1 site -336/-315 probe (Sp1_EMSA3) (dsDNA)
DNA 1: GGGGGCCTCGCCCCTTTGGGGC
DNA 2: GCCCCAAAGGGGCGAGGCCCCC

Biological target: Sp1 (recombinant, Sigma-Aldrich SRP2030) (UniProt P08047 1-785)
Assay: EMSA

Sp1 (recombinant, Sigma-Aldrich SRP2030), sequence (P08047 whole entry): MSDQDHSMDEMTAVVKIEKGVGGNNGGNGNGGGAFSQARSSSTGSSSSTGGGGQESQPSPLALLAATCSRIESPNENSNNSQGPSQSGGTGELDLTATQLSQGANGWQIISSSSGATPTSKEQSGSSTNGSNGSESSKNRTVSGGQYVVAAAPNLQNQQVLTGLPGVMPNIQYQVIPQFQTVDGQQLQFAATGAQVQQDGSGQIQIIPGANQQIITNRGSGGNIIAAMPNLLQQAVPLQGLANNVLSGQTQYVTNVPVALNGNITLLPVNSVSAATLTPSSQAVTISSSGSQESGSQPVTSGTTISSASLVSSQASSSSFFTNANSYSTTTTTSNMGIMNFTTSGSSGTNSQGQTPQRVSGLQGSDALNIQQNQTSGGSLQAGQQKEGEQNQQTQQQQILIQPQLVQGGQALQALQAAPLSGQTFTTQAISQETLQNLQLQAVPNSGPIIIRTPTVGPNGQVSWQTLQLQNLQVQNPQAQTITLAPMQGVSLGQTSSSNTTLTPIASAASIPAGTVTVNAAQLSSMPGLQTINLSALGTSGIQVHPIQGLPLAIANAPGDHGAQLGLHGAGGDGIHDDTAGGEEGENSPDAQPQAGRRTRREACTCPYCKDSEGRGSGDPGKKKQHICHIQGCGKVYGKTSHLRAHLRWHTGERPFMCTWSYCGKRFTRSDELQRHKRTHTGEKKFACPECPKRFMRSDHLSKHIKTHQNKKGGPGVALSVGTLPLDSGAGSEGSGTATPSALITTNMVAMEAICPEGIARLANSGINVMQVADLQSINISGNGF

Binding result, binds:
B1
B2
B3
